Target: TSH β-subunit (human, UniProt P01222 21-132, N-linked glycan (one))
Test: cryo-EM structure

TSH β-subunit, sequence (P01222 21-132): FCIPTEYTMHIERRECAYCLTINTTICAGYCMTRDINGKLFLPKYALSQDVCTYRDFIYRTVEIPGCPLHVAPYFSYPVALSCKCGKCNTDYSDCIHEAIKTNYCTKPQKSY

B1: TSH α-subunit (natural protein)
chain: not shown
modifications: N-linked glycans (two, one at N52)
binding result: binds
